Reference: paper PMC9206387, “LILRB2-mediated TREM2 signaling inhibition suppresses microglia functions” (Molecular Neurodegeneration, 2022)

Target: T1, oligomeric β-amyloid (1-42) (UniProt P05067 672-713)
T1 construct: the cut product β-amyloid (1-42) of the amyloid precursor protein; Oligomer; The methods of the direct BLI, reporter and BiFc assays name no label for oAβ; also called oAβ; Oligomer Aβ; source: bought: AnaSpec (lyophilized powder); HFIP-treated, dissolved in DMSO, oligomerised in DPBS at 37 °C overnight
Assay: BLI; protein A sensor-captured Fc fusion proteins, oAβ at multiple concentrations, 1:1 binding model, KD calculated as kdis/kon
Settings: both partners purified

Binder | Kd [nM] | koff [s⁻¹]
TREM2-Fc fusion protein (extracellular domain of TREM2 fused to human IgG1 Fc) (Fc fusion, UniProt Q9NZC2 19-174, looked up, triggering receptor expressed on myeloid cells 2 (TREM2), extracellular domain (ECD); source: Expi 293 cells, purified (protein A agarose)) HNTTVFQGVAGQSLQVSCPYDSMKHWGRRKAWCRQLGEKGPCQRVVSTHNLWLLSFLRRWNGSTAITDDTLGGTLTITLRNLQPHDAGLYQCQSLHGSEADTLRKVLVEVLADPLDHRDAGDLWFPGESESFEDAHVEHSISRSLLEGEIPFPPTS | 12.6 | 0.000123
LILRB2-Fc fusion protein (extracellular domain of LILRB2 fused to human IgG1 Fc) (Fc fusion, UniProt Q8N423 22-460, looked up, leukocyte immunoglobulin-like receptor subfamily B member 2 (LILRB2), extracellular domain (ECD) with four Ig-like domains; source: Expi 293 cells, purified (protein A agarose)) QTGTIPKPTLWAEPDSVITQGSPVTLSCQGSLEAQEYRLYREKKSASWITRIRPELVKNGQFHIPSITWEHTGRYGCQYYSRARWSELSDPLVLVMTGAYPKPTLSAQPSPVVTSGGRVTLQCESQVAFGGFILCKEGEDEHPQCLNSQPHARGSSRAIFSVGPVSPNRRWSHRCYGYDLNSPYVWSSPSDLLELLVPGVSKKPSLSVQPGPVMAPGESLTLQCVSDVGYDRFVLYKEGERDLRQLPGRQPQAGLSQANFTLGPVSRSYGGQYRCYGAHNLSSECSAPSDPLDILITGQIRGTPFISVQPGPTVASGENVTLLCQSWRQFHTFLLTKAGAADAPLRLRSIHEYPKYQAEFPMSPVTSAHAGTYRCYGSLNSDPYLLSHPSEPLELVVSGPSMGSSPPPTGPISTPGPEDQPLTPTGSDPQSGLGRHLGV | 69.3 | 0.000593
